Assay results taken from the nanobody polyreactivity screen of Harvey et al. (2022).

Experiment: yeast display, Sf9 membrane polyspecificity reagent, FACS + sequencing; frameworks hold sequencing errors
How it was run: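 Nanobodies came from a synthetic yeast display library in Saccharomyces cerevisiae BJ5465, induced with galactose for 36–48 hours and stained for 1 hour at 4 °C with 10% biotinylated, detergent-solubilized Sf9 membrane reagent. Cells were enriched on streptavidin microbeads and then FACS-sorted, with low and high (top ~1%) gates set on anti-HA fluorescence for expression and streptavidin fluorescence for reagent binding. Each polyreactivity label reflects the gate a clone came from. Genes were amplified by colony PCR, sequenced by MiSeq 2 × 250 and filtered by CDR length.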

Sequence: QVQLEESGGGLVQAGGSLRLSCAASGITFEAYAMGWYRQAPGKERELVAAIRSSGTSTYYADSVMGRFTISRDNAKNTVYLQMNSLKPEDTAVYYCNRARSSSRYDYWGQGTQVTVSS
- polyreactivity (PSR sort gate): low polyreactivity

Sequence: QVQLVESGGCLVQAGGSLRLSCAASGRTFYLYAMGWNRQAPGKEREFVARITFSGVSTYYADSVKGSFTISRDNAKNTVSLQMYRLKPEDTAVYYCNRVGHYGYSEGYYYWGQGTQVTVSS
- polyreactivity (PSR sort gate): high polyreactivity

Sequence: QVQLVESGGGLVQAGGSLRLICAASGFTFYIYAMGWYRQAPGKERELVAAINFRGGSTYYADSVKGRFTLSRDNAKNTVYLQMNSLKPEDTAVYYCAAVPRTYSGYYYWGQGTKVTVSS
- polyreactivity (PSR sort gate): high polyreactivity

Sequence: QVQLVESGGGLVQAGGSLRLSCAASGSTLSKYAMGWYRQAPGKERELVAAISQRGGSTYYADSVKGRFTISRDNAKNTVYLQMNSLKPEDTAVYYCNALQRRYGYWGQGTQVTVSS
- polyreactivity (PSR sort gate): high polyreactivity

Sequence: QVQLVESGGGLVQAGGSHRLSCAASGRIFKINAMGCYRQAPVKERELVAGISGSGSDTYYADSVKGRFTISRDNSKNTVYLQMNSLKPEDTAVYYCAATVVQYYDRDYWGQGTQVTVSS
- polyreactivity (PSR sort gate): low polyreactivity

Sequence: QVQLVESGGGLVQAGGSLRLSCAASGLIFDDYAMGWYRQAPGKERELVAAISWSDGTTYYADSVKGRFTISRDNAKNTVYLQMNSLKPEDTAVYYCAAEEVSGWEYDYWGQGTQVTVSS
- polyreactivity (PSR sort gate): high polyreactivity

Sequence: QVQLEESGGGLVQAGGRLRLSCAASGIIYDFYAMGWYRQAPGKERELVAAITSSGGSTYYADSVKGRFTISRDNAKKTVYLQMNSLKPEDTAVDYCAAEYTIYGTDQRYYYWGQGTQVTVSS
- polyreactivity (PSR sort gate): low polyreactivity

Sequence: QVQLVESGGGLVQAGGSLRLSFAASGLIFGYYTMGWYTQAPGKERELVAAITGIADSTYYADSVKGRFTISRDNAKNTVYLQMNSLKPEDTAVYYCAADKYVAEYDYWGQGTQVTVSS
- polyreactivity (PSR sort gate): low polyreactivity

Sequence: QVQLVESGGGLVQAGGSLRLSCAASGFTFYYYAMGWYRQAPGKERELVASISWRGGSTYYADSVKGRFTISRDNAKITVYLQMNSLKPEDTAVYYCAAQKRGSPGYRRDYWGQGTQVTVSS
- polyreactivity (PSR sort gate): high polyreactivity

Sequence: QVQLVESGGGLVQAGGSLRLSCAASGRTFRIYAMGWYRQAPGKEREFVAAITWSGGRTYYADSVKGRFTISRDNAKNTVYLQMNSLKPEDTAVYYCAADPTYLRTLRFGSYDYWGQGTQVTVSS
- polyreactivity (PSR sort gate): high polyreactivity

Sequence: QVQLVESVVGLVQAGGSLRLICAASGIIISRYAMECYRQAPGKERELVAAITRSGGDTYYADSVKGRFTISRDNAKNTVYLQMNSLKPEDTAVYYCAASSSWYEDHDYWGQGTQVTVSS
- polyreactivity (PSR sort gate): low polyreactivity

Sequence: QVQLVESGGGLVQAGGSLRLSCAASGSTFYNYAMGWYRQAPGKERELVASISSSGGSTYADSVKGRFTISRDNAKNTVYLQMNSLKPEDTAVYYCARVRWIVPWYGPTDDYWGQGTQVTVSS
- polyreactivity (PSR sort gate): low polyreactivity

Sequence: QVQLVESGGGLVQAGGSLRLSCAASGSTFWGYVMGWYRQAPGKERELVAAITGSGGSTYYADSVKGRFTISRDNAKNTVYLQMNSLKPEDTAVYYCAAAWSKSTSRRYGYWGQGTQVTVSS
- polyreactivity (PSR sort gate): low polyreactivity

Sequence: QVQLVDSGGGLVQAGGSLRLSCPASGSTIAWYDMGWYRQEPGKEREFVAAIDYGGGSTYADSVKGRFTISRDNAKNTVYLQMNSLKPDDTAVYYCNADYWVYLYDYWGQGTLVTVSS
- polyreactivity (PSR sort gate): low polyreactivity

Sequence: QVHLVESGGGLVQAGGSRRLSCAASGRIFSRYTMGCYRQAPGKERELVAVNTSGGSTNYADSVKGRFTISRDNAKNTVYLQMNSLKPEDTAVYYCNAVRFTYGGYLRRYDYWGQGTQVTVSS
- polyreactivity (PSR sort gate): high polyreactivity

Sequence: QVQLQESGGGLVQAGGSLRLSCAASGYISTWYPMGWYRQAPGKEREFVATIAPGATTYYADSVKGRFTISRDYAKNSVYLQMNSLKPEDTAVYYCAAGPENNDFYSYWGQGTQVTVSS
- polyreactivity (PSR sort gate): low polyreactivity

Sequence: QVQLVESGAGLVQAGGSLRLSCAASGGTFLYYAMGWYRQAPGKERELVAVINSNGGSTYYADSVKGRFTISRDNAKNTVYLQMNSLKPEDTAVYYCAADYQSYVYIGYGYWGQGTQVTVSS
- polyreactivity (PSR sort gate): low polyreactivity

Sequence: QVQLVESCGGLVQAGGSLRLSCAASGRTFRSYTMGWYRQAPGKERELVASIRTSSGCTYYADSVKGRFTISRDNAKNSVYLKMNSLKPEDTAVYYCAKTLLYPWFRTVAVDYWGQGTQVTVSS
- polyreactivity (PSR sort gate): low polyreactivity

Sequence: QVQVVKSGGGLVQAGGSLSLSCAASGRTFGVYAMGWYRQAPGNESELVAGIRWRGGSTYYADSVKGRFTISRDNSKNTVYLQMKSLKPEETAVYYCAADVDLVKDDYWGQGTQVTVSS
- polyreactivity (PSR sort gate): low polyreactivity

Sequence: QVQLVESGGGLVQAGGSLRLSCAASGRIFGGYAMGWYRQAAGKERELVAAISRRGGSTYYADSVKGRFTISRDNAKNTVYLQMNSLKPEDTAVYYCNAVLSDQARLTRVDYDYWGQGTQVTVSS
- polyreactivity (PSR sort gate): high polyreactivity

Sequence: QVQLVESCGGLVQAGGSLRLSCAASAWYAIGWYRQAPGKEREFVAAITFSGSSTYYADSVKGRFTISRDNAKNTVYLQMNSLKPEDTAVYYCNADWWEWGQGTQVTVSS
- polyreactivity (PSR sort gate): low polyreactivity

Sequence: QVQLVESGGGLVQAGGSLRLSCAASGIIFWFYAMGWYRQAPGKERELVAAISGDGDSTYYADSVKGRFTISRDNAKNTVYLQMNSLKPEDTAVYYCAAEWDPVFATDEDDYWGQGTQVTVSS
- polyreactivity (PSR sort gate): low polyreactivity

Sequence: QVQLVESGGGLVQAGGSLRLSCAASGFIFFVNAMGWYRQAPGKEREFVATITGSGGSKYYADSVKGRFTISRDIAKNTVYLQMISLKPEDTAVYYCNAETYIVLRGKFPVEYDYWGQGTQVTVSS
- polyreactivity (PSR sort gate): low polyreactivity

Sequence: QVQRVESGGGLVQAGGSLRLSCAASGSILFHYAMGWYRQAPGKEREMVAAISRRGGSTYYADSVKGRFSISRDNAKNTVYLQMNSLKPEDTAVYYCAKYPSAYVDSDVTYDMDYWGQGTQVTVSS
- polyreactivity (PSR sort gate): low polyreactivity

Sequence: QVQLVESGGGLVQAGGSLRLSCAASGSTFKPNVMGWYRPAPGKERELVAAITSTDDRTYYADSVKGRFTISRDNAKNTVYLQMNSLKPEDTAVYYCNRPYAWYGYIYNYWGQGTQVTVSS
- polyreactivity (PSR sort gate): low polyreactivity

Sequence: QVQLVESGGGLVQARGSLRLSCAATGRTFQIYAMGWYRQAPGKERELVAAISSGGRTNYADSVKGRFTISRDNAKNTVYLQMNSLKPEDTAVYYCAKRWARPGMDYWGQGTQVTVSS
- polyreactivity (PSR sort gate): high polyreactivity

Sequence: QVQLVESGGGLVQAGGSLRLSCAASGSIFGEYAMGWYRQAPGKERELVATIRQSGDSTYYAVSVKGRFTISRDTAKNTVYLQMNSLKPEDTAVYYCAADLWLYDYYSEYDYWGPGTQVTVSS
- polyreactivity (PSR sort gate): low polyreactivity

Sequence: QVQLGESGGGLVQAGGSLRLSCAASGTIYGYVMGWYRQAPGKERVLVAAISSSGGSTYYADSVKGRFTISRDNAKNTVYLQMNSLKPEDTAVYYCAKGLTYARRYGYWGQRTQVTVSS
- polyreactivity (PSR sort gate): high polyreactivity

Sequence: QVQLVESGGGLVQAGGSLRLSCAASGFIFDRNTMGWYRQAPGKERELVAAISRSGGSTYYADSVKGRFTISRDNAKNTVYLLMNSLKPEDSAVYYCAALYYYRNRSYDYWGQGTQVTVSS
- polyreactivity (PSR sort gate): high polyreactivity

Sequence: QVQLVESGGGLDQEGGSLRLSCAASGRIFARNAMGWYRQAPGKERELVAAIRNSDGSTYYADSVKGRFTISRDNAKNTVYLQMNSLKPEDTAVYYCAARSGSYRKYGYWGQGTQVTLSS
- polyreactivity (PSR sort gate): high polyreactivity

Sequence: QVQRVESGGGLVQAGGRLRLSCAASGSISVAKAMGWYRQAPGKERELVAAITDSGDDTYYADSVKGRFTISRDNAKNTVYLQMNSLKPEDTAVYYCAAGLRLDLGAMYYWGQGTQVTVSS
- polyreactivity (PSR sort gate): low polyreactivity

Sequence: QVQLVESGGGLVQAGGSLRLSCAASGRTFAGYAMGWYRQPPGKERELVAAITSSGGTTYYADSVKGRFTISRDNAKNTVYLQMNILKPEDTAVYSCAADLTWIYRWQTYNYDYWGQGTQVTVSS
- polyreactivity (PSR sort gate): high polyreactivity

Sequence: QVQLVESGGGLVQAGGSLRLSCAASGRTFYRNAMGWYRQAPGKERELFATINSGGSTHYADSVKGRFTISRDNAKNTVYLQMTSLKPEDNAVYYCAARSQSYRGSLSYYWGQGTQVTVSS
- polyreactivity (PSR sort gate): high polyreactivity

Sequence: QVQLVESGGGLVQAGGSLRLSCAASGRTFSYAMGWYRQAPGKERELVAGISWSGGRTYYADSVKGRFTISRDNAKNTVYLQMNSLKPEDTAVYYCAAGGRARTYYYWGQGTQVTVSS
- polyreactivity (PSR sort gate): high polyreactivity

Sequence: QVQLVESGGGLVQAGGSLRLSCAASGSPFDYNAMGWYRPAPGKERELVAASDVSGDNTYYADSVKGRFTISRDNAKNTVYLQMNSLKPEETAVYYCNADDYWRGTSDYDYWGQGTQVTVSS
- polyreactivity (PSR sort gate): low polyreactivity

Sequence: QVQLVESGGGLVQAGGSLSLSCAAYGRTFTYYAMGWYRPAPGKERELVAVISSGGRTYYADSVKGRFTISRDNAKITVSFQMNSLKPDDKGVYYCNAASPRYLVEYDFWGQGTQVTVSS
- polyreactivity (PSR sort gate): high polyreactivity

Sequence: QVQLVESGGCLVQEGGSLRLSCPASGSIFDDYAMGWYRQAPGKERELVAAISDSCGSTYYADSVKGRFTISRDNAKNTVYLQMNSLNQEDTAVYYCNADRDDDYDYWGEGTQVTVSS
- polyreactivity (PSR sort gate): low polyreactivity

Sequence: QVQLVESGGGLVQAGGSLRLSCAASGFIFKSNAMGWDRQAPGKERELVAAISTSGGSTYYADSVKGRFTISRDNAKNTVYLQMNSLKPEDTAVYYCAKRPSRYYYRLDYWGQGTQVTVSS
- polyreactivity (PSR sort gate): high polyreactivity

Sequence: QVQLVESGGGLVQAGGSLRLSCAASGSIFVYNAMGWYRQAPGKERELVAAITWSGGNTYYADSVKGRFTISRDNAKNTVYLEMNSLKPEDTAVSYCPAEFWQQGGWWEYDYWGQGTQVTVSS
- polyreactivity (PSR sort gate): low polyreactivity

Sequence: QVQLVESGGGLVQAGGSLRLSCAASGLIFTNNAMGWYRQAPGKERELVAGINSGGRTNYADSVKGRFTISRDNAKNTVYLQKNSLKPEDTAVYYCAARWWVKSRPNRYNYWGQGTQVTVSS
- polyreactivity (PSR sort gate): high polyreactivity

Sequence: QVQLVESGGGLVQAGGSLRLSCAASGSIFYDYAMGWYRQAPGKEREFVAAITSSGGSTYYADSVKGRFTISRDNAKNTVYLQMNSLKPEDTAVYYCAAEDSDAYFIYGYWGQGTQVTVSS
- polyreactivity (PSR sort gate): low polyreactivity

Sequence: QVQLGESGGGLVQAGGSLRLSCAASGRIFRYYAMGWYRQAPGKERELVAAISSSGGSTYYADSVKGRFTISRDNAKNTVYLQMNSLKPEDTAVYYCNTVGSVGKKRDYWGQGTQVTVSS
- polyreactivity (PSR sort gate): high polyreactivity

Sequence: QVQLVESGGCLDQAGGRLRLSCAASGSTFYDYVMGWYRQAPGKERELVAVISSSGSTNYADSVKGRVTISRDNAKNTVYLQMNSLKPEDTAVYYCAVDPFRRWWETIFDEYDYWGQGTQVTVSS
- polyreactivity (PSR sort gate): low polyreactivity
